Test results from paper PMC9119168 (Antiviral Research, 2022).
Where no end group is shown, it is not given here. Side-chain parts run from the residue outwards. The star is where a group is joined. Biotin = O=C1N[C@H]2[C@H](CS[C@H]2CCCCC(=O)*)N1; Aoa = not defined here

What was measured:
[1] = biological target: T1, SARS-CoV-2 Mac1 (conserved macrodomain of non-structural protein 3), His-tagged (SARS-CoV-2, UniProt P0DTD1); assay: AlphaScreen or HTRF
[2] = biological target: T1, SARS-CoV-2 Mac1 (conserved macrodomain …); assay: fluorescence polarisation

| Binder | binding result [1] | binding result [2] |
| --- | --- | --- |
| ARTK(Biotin)QTARK([Aoa-ADP‑ribose])S (reading uncertain) [10 amino acid biotinylated and ADP-ribosylated peptide [ARTK(Bio)QTARK (Aoa-RADP)S]] | binds | – |
| ARTKQTARKS [fluorescein labeled ADP-ribosylated peptide [5 Flu-ARTKQTARK (Aoa-RADP)S]] | – | binds |
